For one substance, activity results are on record in patent publication US6214588.

The data set concerns GAL4(1-147)-VP16 (Saccharomyces cerevisiae / herpes simplex virus?). As to conditions: in vitro transcription stimulation with purified holoenzyme, factor a, TBP; 10-fold in nuclear extract.

For pGAL4CG- (+GAL4 site template), the activity amounted to 5 fold.
